From IntAct's records for PubMed 19008854 come the findings set out here.

B1: Antiviral innate immune response effector IFIT1 (Homo sapiens), P09914 (parent)
chain: MSTNGDDHQVKDSLEQLRCHFTWELSIDDDEMPDLENRVLDQIEFLDTKYSVGIHNLLAYVKHLKGQNEEALKSLKEAENLMQEEHDNQANVRSLVTWGNFAWMYYHMGRLAEAQTYLDKVENICKKLSNPFRYRMECPEIDCEEGWALLKCGGKNYERAKACFEKVLEVDPENPESSAGYAISAYRLDGFKLATKNHKPFSLLPLRQAVRLNPDNGYIKVLLALKLQDEGQEAEGEKYIEEALANMSSQTYVFRYAAKFYRRKGSVDKALELLKKALQETPTSVLLHHQIGLCYKAQMIQIKEATKGQPRGQNREKLDKMIRSAIFHFESAVEKKPTFEVAHLDLARMYIEAGNHRKAEENFQKLLCMKPVVEETMQDIHFHYGRFQEFQKKSDVNAIIHYLKAIKIEQASLTRDKSINSLKKLVLRKLRRKALDLESLSLLGFVYKLEGNMNEALEYYERALRLAADFENSVRQGP
partner: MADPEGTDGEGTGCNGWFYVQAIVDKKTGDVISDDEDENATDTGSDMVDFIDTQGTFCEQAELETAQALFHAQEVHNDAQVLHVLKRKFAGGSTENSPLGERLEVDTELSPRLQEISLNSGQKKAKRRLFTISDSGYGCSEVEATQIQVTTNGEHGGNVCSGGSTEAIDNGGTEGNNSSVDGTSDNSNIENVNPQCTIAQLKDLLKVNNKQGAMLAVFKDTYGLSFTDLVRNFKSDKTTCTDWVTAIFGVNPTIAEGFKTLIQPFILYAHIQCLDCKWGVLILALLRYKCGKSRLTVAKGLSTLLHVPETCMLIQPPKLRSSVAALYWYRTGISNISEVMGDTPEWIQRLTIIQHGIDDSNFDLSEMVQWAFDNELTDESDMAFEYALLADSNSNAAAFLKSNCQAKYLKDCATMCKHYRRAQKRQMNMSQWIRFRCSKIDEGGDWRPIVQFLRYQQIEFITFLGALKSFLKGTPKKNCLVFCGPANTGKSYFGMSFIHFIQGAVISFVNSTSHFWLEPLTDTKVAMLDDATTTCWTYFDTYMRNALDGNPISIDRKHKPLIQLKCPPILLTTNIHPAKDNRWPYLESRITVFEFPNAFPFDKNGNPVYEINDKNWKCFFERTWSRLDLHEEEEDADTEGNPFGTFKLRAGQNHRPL

The variants in this experiment derive from B1. The note with it: with ve1_hpv18 E1, P06789.
Take V121E: the “effect of a mutation on the interaction” value is reported as “disrupting interaction”.

Consider L118R, for which the “effect of a mutation on the interaction” value is on record as “disrupting interaction”. The result for A114T reads “disrupting interaction”.
